Results taken from patent US20200352839.

System: Compound E7 (CTP-Cas1-FINA)

caspase-1 was tested, and the “HPLC analysis after treatment with caspase-1 (cleavage)” value was “the compound is cleaved into two moieties, that is, finasteride and the protein transduction domain”.
